Measured values published in PMC6176016.

Legend:
Assay in all cases: FRET by FACS (LSRII)
WT TACI-YFP = settings: HEK-293T cells, double positive YFP and mCherry gate, 6 independent experiments, read off a plot
[1] = target: TACI-L (long TACI isoform) labeled with mCherry or YFP (UniProt O14836); settings: co-transfected HEK-293T cells; percent of live cells in the gate, averaged for 6 experiments
[2] = target: TACI-S (short TACI isoform) labeled with mCherry or YFP, O14836-2; settings: co-transfected HEK-293T cells; percent of live cells in the gate, averaged for 6 experiments
Sequence of TACI-S (short TACI isoform) labeled with mCherry or YFP, O14836-2 (O14836 other isoform, or with tags, fused parts or gaps): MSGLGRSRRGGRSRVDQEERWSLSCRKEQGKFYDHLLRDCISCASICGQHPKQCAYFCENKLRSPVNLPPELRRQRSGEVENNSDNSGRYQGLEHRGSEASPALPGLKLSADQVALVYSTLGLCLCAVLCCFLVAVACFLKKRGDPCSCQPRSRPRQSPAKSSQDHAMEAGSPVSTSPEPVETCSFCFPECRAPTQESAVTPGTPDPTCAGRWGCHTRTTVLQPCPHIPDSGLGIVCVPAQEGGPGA

[3] = target: CD40-eYFP (pReceiver-huCD40-eYFP) (UniProt P25942); settings: co-transfected HEK-293T cells; percent of live cells in the gate, averaged for 6 experiments
Sequence of CD40-eYFP (pReceiver-huCD40-eYFP) (P25942 21-277): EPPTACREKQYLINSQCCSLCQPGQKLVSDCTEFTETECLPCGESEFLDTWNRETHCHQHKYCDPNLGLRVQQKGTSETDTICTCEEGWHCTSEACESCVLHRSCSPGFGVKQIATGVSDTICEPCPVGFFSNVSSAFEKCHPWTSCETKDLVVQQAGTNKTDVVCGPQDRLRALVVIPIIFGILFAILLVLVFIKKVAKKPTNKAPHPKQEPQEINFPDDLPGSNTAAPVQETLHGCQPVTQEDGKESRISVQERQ

Sequence of TACI-L (long TACI isoform) labeled with mCherry or YFP (O14836 whole entry, canonical isoform): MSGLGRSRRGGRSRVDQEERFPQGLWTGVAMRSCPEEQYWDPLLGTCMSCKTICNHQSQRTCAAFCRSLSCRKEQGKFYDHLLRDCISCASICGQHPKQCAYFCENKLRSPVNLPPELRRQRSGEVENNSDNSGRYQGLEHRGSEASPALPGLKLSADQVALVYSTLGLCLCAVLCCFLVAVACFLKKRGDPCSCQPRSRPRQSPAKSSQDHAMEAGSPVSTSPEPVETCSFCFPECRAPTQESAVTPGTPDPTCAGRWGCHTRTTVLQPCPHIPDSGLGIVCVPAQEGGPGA

Substance | response (% FRET positive cells) (WT TACI-YFP; parent: est. 90) | response (% FRET positive cells) (WT TACI-YFP; parent: est. 72) | response (% FRET positive cells) [1] | response (% FRET positive cells) [2] | response (% FRET positive cells) [3]
TACI-L A181E | 72 | – | – | – | –
TACI-S A181E | – | 88 | – | – | –
WT TACI (isoform of the mutant not stated in the panel) A181E | – | – | 16.8 | 19.6 | 0.38
WT TACI (isoform of the mutant not stated in the panel) C104R | – | – | 14.8 | 18.7 | 0.02

More lines, now with the values ahead:

response (% FRET positive cells) (WT TACI-YFP; parent: est. 90) | response (% FRET positive cells) (WT TACI-YFP; parent: est. 72) | response (% FRET positive cells) [1] | response (% FRET positive cells) [2] | response (% FRET positive cells) [3] | Substance
81 | – | – | – | – | TACI-L C104R
– | 74 | – | – | – | TACI-S C104R
